Laboratory results taken from the supplement of paper PMC9170038.

Test system: MS2 coat protein
Assay: apparent KD of MS2 coat protein; designed switch direction (-1 OFF switch, 1 ON switch): -1; higher = weaker reporter binding
Method in brief: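 Apparent KD, taken as the median over clusters for each design, was obtained by curve-fitting normalised cluster fluorescence. Designed RNA switches had been transcribed on Illumina chips by stalled E. coli RNA polymerase and titrated with SNAP-549-labelled MS2 coat protein, doubling from 0.7 or 1.5 nM to 3 µM.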

[1] = Eterna round: R95, input ligand: microRNA oligo, concentration not stated
[2] = Eterna round: R95, input ligand: FMN 200 uM
[3] = Eterna round: R95, input ligand: none
[4] = input ligand: microRNA oligo, concentration not stated

Sequence	apparent KD of MS2 coat protein (input ligand: FMN 200 uM) [nM]	apparent KD of MS2 coat protein (input ligand: none) [nM]	apparent KD of MS2 coat protein [1] [nM]	further results
CGAUGGCGAGGAUAUACAUGAGGAUCACCCAUGUGAGAGAUACUAGUGAGGUCGAUUAGUAGAAGGCGCUGUCG [Mat - Exclusion 3 - Eli Mod - D70] (Eterna round: R97, puzzle: Exclusion 3)	883	38.6		
AAGCACAGAGGAUAUACAAUCCUCAGUGGGUCUGGCGAGCCACAUGAGGAUCACCCAUGUAGAAGGCUGGGCUC [Xezaoron] (puzzle: Exclusion 2)			11	
AGAUUUGUAGUGAGGAUAUAGGAUGAGUAGUAGUACUAGAAGGCACAUGAGGAUCACCCAUGUAAGUGAAUGAG [Exclusion 4 mod test] (Eterna round: R97, puzzle: Brourd's mod of Exclusion 4)	22.6	20.2		
AUUGUAGUUGUGAGGAUAUCGUUGAUUUUUUGAAACGAGAAGGCACAUGAGGAUCACCCAUGUUAGUUGUUGGU [JR_BMOE4_Sub056] (puzzle: Brourd's mod of Exclusion 4)			65.4	
GGUAAGCUAGGAUAUGCUUUGGGAAAGCAUUCCUUCGAUAAACUUGAGGAUCACCCAAGUAGAAGGAGCUUACC [salish99_ex2_r4_016] (Eterna round: R97, puzzle: Exclusion 2)	19.8	11.8		
AAGUAUAGAGGAUAUAGUAAGUACUACAUGAGGAUCACCCAUGUUCUUCAUUACGUAUUUCUAGAAGGCUGAUAAA [EX-5 Malc#25] (puzzle: Exclusion 5)			369	
AAUACUAACACGAAAGUGUUAGUACAAUAAGCUUGUGAAACAUGAGGAUCACCCAUGUCCUCAUAAGCUCGUCUUAA [salish99_TOv2_r3_011] (puzzle: Sensor v3, turn-off variant 2)			309	apparent KD of MS2 coat protein [2]: 12.3 nM; apparent KD of MS2 coat protein [3]: 13.1 nM
GUAUAACAUGUAGGAUAUGCGUGGCGAAGCUAUGCAGAAGGACAUGAGGAUCACCCAUGUUUUUGCGUCUGCGUACAGAUGCUA [JL ENG1 1.40] (Eterna round: R96, puzzle: Exclusion NG 1)	107	21.5		apparent KD of MS2 coat protein [4]: 15.2 nM
AGAAAUGCCCAUGGCCACAAGCUUUUUGCUUAUCUUACUACAUGAGGAUCACCCAUGUAACAUGGGCUCCUGACAAU [Enrionera] (puzzle: Sensor v3, turn-off variant 2)			11.2	apparent KD of MS2 coat protein [2]: 14.9 nM; apparent KD of MS2 coat protein [3]: 13.3 nM
CUUCAGUCAGGAUAUCAUGAGCUCUGCCGACACGGGCUCGCUGAGAAGGGACAUGAGGAUCACCCAUGUAGACC [EX4 C.20] (Eterna round: R97, puzzle: Exclusion 4)	132	34.1		
AAUUGCUAGCCGAUCCUCCACAUGAGGAUCACCCAUGUGCUUGUCUUGUAAUGUACUAUCACGAAAGUGAUAGUACA [Sensor v3, turn-off variant 1 (MOD of Eli's v1-59 v.5)] (puzzle: Sensor v3, turn-off variant 1)			54.7	apparent KD of MS2 coat protein [2]: 44.7 nM; apparent KD of MS2 coat protein [3]: 43.2 nM
AAUAACAGAGGAUAUACUGUUUUAUGUAUUUAUUAUUUUAAACAUGAGGAUCACCCAUGUAGAAGGCUGAUUAA [JMF 43] (puzzle: Exclusion 2)			27.4	
CAGUACUGAGGAUAUACAUGAGGAUCACCCAUGUGUUCCAGCUAGGAUACUAGCAAUGGAAGAAGGCAGUACUG [Mat - Exclusion 3 - Eli Mod - D1] (Eterna round: R97, puzzle: Exclusion 3)	17.2	16.8		
CUGAGGUAAGGAUAUAGGAGAGAAGAUAAGGUAUGAGAGUUCUAGAAGGUACAUGAGGAUCACCCAUGUUAGGG [JR_Exclu4_Sub087] (puzzle: Exclusion 4)			252	
GGAAUACAUGAGGAUCACCCAUGUAAGGAUAUGCUGAUUAACACGGAAUAAUUAUGCAGCAGAAGGUACAAAGG [Mat - Mod of my Eli Mod D48] (puzzle: Exclusion 1)			113	
UGUCAGAUGGUAGGAUAUCCAUAUCGAGUGACUCUUUCAUAACAUGAGGAUCACCCAUGUCGGUGGGAGAAGGGCCGUAUGGUG [salish99_ExNG02_R04_027] (Eterna round: R96, puzzle: Exclusion NG 2)	22.9	25.2		apparent KD of MS2 coat protein [4]: 14.5 nM
UUUUAACAUGAGGAUCACCCAUGUGAGGAUAUCGAAAUUUAUAUUUAUAUUUAUUAAUCGAGAAGGCACAUUUU [JMF 100] (puzzle: Exclusion 1)			121	
UUUAAUUUUUUUUUUUUACAAGCUUUUUGCUCGUCUUAUACAUGAGGAUCACCCAUGUAGGUGAGAAGUAAAUUAUC [JMF 49] (puzzle: Sensor v3, turn-off variant 2)			168	apparent KD of MS2 coat protein [2]: 19.3 nM; apparent KD of MS2 coat protein [3]: 23.3 nM

Sequence	apparent KD of MS2 coat protein (input ligand: FMN 200 uM) [nM]	apparent KD of MS2 coat protein (input ligand: none) [nM]	apparent KD of MS2 coat protein [1] [nM]	further results
GAUGAGGUAGGAUAUACGAGAAUAUAGGGUAGAUAUAUAACACAUGAGGAUCACCCAUGUAGAAGGACCAGUAG [Mat - Exclusion 2 - Mod of my Tesla design - D70] (puzzle: Exclusion 2)			33.6	
GAGUGACAUGAGGAUCACCCAUGUGAGGAUAUCGGACGGACCUUGUUGGCUUCCGCCGCGAGAAGGCACAUCGG [Exclusion 1 V26] (puzzle: Exclusion 1)			87.5	
GAUUAUGCGAGCUUUAGGGACAUGAGGAUCACCCAUGUUCGUCUUAUUAAUCUAGGUACACUAACAUACCUAAAUCU [JMF 10] (puzzle: Sensor v3, turn-off variant 1)			37.6	apparent KD of MS2 coat protein [2]: 23.9 nM; apparent KD of MS2 coat protein [3]: 21.4 nM
ACACACAGAGGAUAUCUUCCGCAUGACAUGAGGAUCACCCAUGUGUGCAUGCCCAAAGGUAGAGAAGGCUGUGUGU [eternacac ex5r4 #4] (Eterna round: R97, puzzle: Exclusion 5)	24.9	22.2		
CUGUAGCUACAAGCUUUUUGCACGUCAGGUAGUGACGCAACAUGAGGAUCACCCAUGUAUAGGGUGGGACAGGAUAG [JR_SV3TOV2_Sub049] (puzzle: Sensor v3, turn-off variant 2)			153	apparent KD of MS2 coat protein [2]: 443 nM; apparent KD of MS2 coat protein [3]: 495 nM
UGGUGUGAAGGAUAUACAUGAGGAUCACCCAUGUAUGUGGUGUGUGUUGAGGUGGAGGGUAGAAGGUCAGGUGG [JR_Exclusion3_Sub014] (puzzle: Exclusion 3)			35.9	
AAACUGCAUGUGAGGAUAUGCACCAGCUAAGCCGGGCAGAAGGCACAUGAGGAUCACCCAUGUCAUCCUAUUGC [Latibibe] (puzzle: Brourd's mod of Exclusion 4)			11.6	apparent KD of MS2 coat protein [2]: 26.5 nM; apparent KD of MS2 coat protein [3]: 14.4 nM
ACGUGGUGAGGAUAUGCACAAUACAAGAGUGUCAGAUCCGGACAUGAGGAUCACCCAUGUAGAAGGCACCCAAU [Eternabot (Original) Solution 10] (Eterna round: R97, puzzle: Exclusion 2)	41	50.8		
UAUAACCGAGGAUAUACAUGAGGAUCACCCAUGUAAUGUAGUAUAAUGUAUGUAAGAUGUAGAAGGUGGGAUGU (Eterna round: R97, puzzle: Exclusion 3)	56.2	45.2		
CAGUACUGAGGAUAUACAUGAGGAUCACCCAUGUGUUCCAGCUAGGAAACUAGCAAUGGAAGAAGGCAGUACUG [Salish 065 m1] (Eterna round: R97, puzzle: Exclusion 3)	18.8	21.6		
AGUUGGCGAGGAUAUACAUGAGGAUCACCCAUGUGAAUAAUAAUAGUGAGGAAGAAAAGUAGAAGGCGCUGACA [Mat - Exclusion 3 - Mod of Salish D35] (puzzle: Exclusion 3)			46.1	
CAUGGAACGUAGGAUAUCUCGCAGCCCGGCCGCAGAGAAGGACGUACAUGAGGAUCACCCAUGUAUGAUCCAAA [Zareinon] (puzzle: Exclusion 6)			19.8	apparent KD of MS2 coat protein [2]: 32.2 nM; apparent KD of MS2 coat protein [3]: 26.2 nM
GGUGCGUAUGUGAGGAUAUGCUGGUCCUUGGCUCGGCAGAAGGCACAUGAGGAUCACCCAUGUGGUGUCGUGCC [salish99_Bmod_ex4_056] (Eterna round: R96, puzzle: Brourd's mod of Exclusion 4)	46	19.8		apparent KD of MS2 coat protein [4]: 14.9 nM
UCGCUGCGAGGAUAUACGUUUGCGCGCUUUCGUUUGCGCGUACAUGAGGAUCACCCAUGUAGAAGGCGCGCUGC [Apr-15 SS2-7] (puzzle: Exclusion 2)			13.1	
AAUAAUAAAGUCAGGAUAUCUAGAGCUUCGGCUCUAGAGAAGGGACAUGAGGAUCACCCAUGUCACUCAAUAAU [BmEx4/3-D1] (Eterna round: R97, puzzle: Brourd's mod of Exclusion 4)	21.6	15.1		
CUUUUGUGAGGAUAUCAGUAGUAAUUAAAUAAAAUUACUACUGAGAAGGCACAUGAGGAUCACCCAUGUUCCUC [salish99_ex3_r3_077] (puzzle: Exclusion 4)			39.5	
AGGGCGGGAGGAUAUCCAAUAUAUGACAUGAGGAUCACCCAUGUUUCCACUCGUACCUCCGGAGAAGGCCCGCCGA [Ex5 #25] (Eterna round: R97, puzzle: Exclusion 5)	21.2	21.5		
CGAAAGGUAGGAUAUACGAAGAAAAAGGGUAGAAUAAUAACACAUGAGGAUCACCCAUGUAGAAGGACCAAAGG [Mat - Exclusion 2 - Mod of my Tesla design - D12] (puzzle: Exclusion 2)			19.4	apparent KD of MS2 coat protein [2]: 13.3 nM; apparent KD of MS2 coat protein [3]: 33.2 nM
